# Test results reported in IntAct's records for PubMed 31515488.
# B1: Septin-12 (Homo sapiens), Q8IYM1 (parent)
# chain: MDPLRRSPSPCLSSQPSSPSTPPCEMLGPVGIEAVLDQLKIKAMKMGFEFNIMVVGQSGLGKSTMVNTLFKSKVWKSNPPGLGVPTPQTLQLHSLTHVIEEKGVKLKLTVTDTPGFGDQINNDNCWDPILGYINEQYEQYLQEEILITRQRHIPDTRVHCCVYFVPPTGHCLRPLDIEFLQRLCRTVNVVPVIARADSLTMEEREAFRRRIQQNLRTHCIDVYPQMCFDEDINDKILNSKLRDRIPFAVVGADQEHLVNGRCVLGRKTKWGIIEVENMAHCEFPLLRDLLIRSHLQDLKDITHNIHYENYRVIRLNESHLLPRGPGWVNLAPASPGQLTTPRTFKVCRGAHDDSDDEF
# partner: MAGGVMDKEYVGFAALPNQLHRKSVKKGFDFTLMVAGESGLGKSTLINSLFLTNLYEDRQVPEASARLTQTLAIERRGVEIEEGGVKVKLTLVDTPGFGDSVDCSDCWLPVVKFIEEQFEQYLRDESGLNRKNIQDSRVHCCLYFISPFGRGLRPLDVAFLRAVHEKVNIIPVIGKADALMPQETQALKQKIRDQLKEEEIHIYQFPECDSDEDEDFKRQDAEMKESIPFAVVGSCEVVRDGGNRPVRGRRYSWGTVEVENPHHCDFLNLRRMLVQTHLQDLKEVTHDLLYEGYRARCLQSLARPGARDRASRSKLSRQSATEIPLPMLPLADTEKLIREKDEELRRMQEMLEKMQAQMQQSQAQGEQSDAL
# B2: Protein LDOC1 (Homo sapiens), O95751 (parent)
# chain: MVDELVLLLHALLMRHRALSIENSQLMEQLRLLVCERASLLRQVRPPSCPVPFPETFNGESSRLPEFIVQTASYMLVNENRFCNDAMKVAFLISLLTGEAEEWVVPYIEMDSPILGDYRAFLDEMKQCFGWDDDEDDDDEEEEDDY
# B3: Isoform 1 of Myotubularin-related protein 9 (Homo sapiens), Q96QG7-1 (parent)
# chain: MEFAELIKTPRVDNVVLHRPFYPAVEGTLCLTGHHLILSSRQDNTEELWLLHSNIDAIDKRFVGSLGTIIIKCKDFRIIQLDIPGMEECLNIASSIEALSTLDSITLMYPFFYRPMFEVIEDGWHSFLPEQEFELYSSATSEWRLSYVNKEFAVCPSYPPIVTVPKSIDDEALRKVATFRHGGRFPVLSYYHKKNGMVIMRSGQPLTGTNGRRCKEDEKLINATLRAGKRGYIIDTRSLNVAQQTRAKGGGFEQEAHYPQWRRIHKSIERYHILQESLIKLVEACNDQTHNMDRWLSKLEASNWLTHIKEILTTACLAAQCIDREGASILIHGTEGTDSTLQVTSLAQIILEPRSRTIRGFEALIEREWLQAGHPFQQRCAQSAYCNTKQKWEAPVFLLFLDCVWQILRQFPCSFEFNENFLIMLFEHAYASQFGTFLGNNESERCKLKLQQKTMSLWSWVNQPSELSKFTNPLFEANNLVIWPSVAPQSLPLWEGIFLRWNRSSKYLDEAYEEMVNIIEYNKELQAKVNILRRQLAELETEDGMQESP
# B4: Peroxisomal bifunctional enzyme (Homo sapiens), Q08426 (parent)
# chain: MAEYTRLHNALALIRLRNPPVNAISTTLLRDIKEGLQKAVIDHTIKAIVICGAEGKFSAGADIRGFSAPRTFGLTLGHVVDEIQRNEKPVVAAIQGMAFGGGLELALGCHYRIAHAEAQVGLPEVTLGLLPGARGTQLLPRLTGVPAALDLITSGRRILADEALKLGILDKVVNSDPVEEAIRFAQRVSDQPLESRRLCNKPIQSLPNMDSIFSEALLKMRRQHPGCLAQEACVRAVQAAVQYPYEVGIKKEEELFLYLLQSGQARALQYAFFAERKANKWSTPSGASWKTASARPVSSVGVVGLGTMGRGIVISFARARIPVIAVDSDKNQLATANKMITSVLEKEASKMQQSGHPWSGPKPRLTSSVKELGGVDLVIEAVFEEMSLKKQVFAELSAVCKPEAFLCTNTSALDVDEIASSTDRPHLVIGTHFFSPAHVMKLLEVIPSQYSSPTTIATVMNLSKKIKKIGVVVGNCFGFVGNRMLNPYYNQAYFLLEEGSKPEEVDQVLEEFGFKMGPFRVSDLAGLDVGWKSRKGQGLTGPTLLPGTPARKRGNRRYCPIPDVLCELGRFGQKTGKGWYQYDKPLGRIHKPDPWLSKFLSRYRKTHHIEPRTISQDEILERCLYSLINEAFRILGEGIAASPEHIDVVYLHGYGWPRHKGGPMFYASTVGLPTVLEKLQKYYRQNPDIPQLEPSDYLKKLASQGNPPLKEWQSLAGSPSSKL
# partner: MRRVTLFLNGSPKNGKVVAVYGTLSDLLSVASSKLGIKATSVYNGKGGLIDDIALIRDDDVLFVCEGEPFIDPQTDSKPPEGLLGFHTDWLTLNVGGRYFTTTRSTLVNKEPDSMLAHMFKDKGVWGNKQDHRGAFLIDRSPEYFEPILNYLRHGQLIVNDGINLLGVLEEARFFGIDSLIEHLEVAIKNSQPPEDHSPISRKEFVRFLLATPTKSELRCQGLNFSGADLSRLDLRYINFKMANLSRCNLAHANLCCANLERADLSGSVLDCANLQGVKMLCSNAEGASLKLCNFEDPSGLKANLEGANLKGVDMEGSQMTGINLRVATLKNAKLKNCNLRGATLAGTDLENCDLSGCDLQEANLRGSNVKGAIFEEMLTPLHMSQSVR
# Variants of: B1
# Conditions: with sept1_human SEPTIN1, Q8WYJ6
row,effect of a mutation on the interaction,Variant
1,disrupting interaction strength,V222I

# Variants of: B2
# Conditions: with ch033_human C8orf33, Q9H7E9
# ch033_human C8orf33, Q9H7E9, sequence (Q9H7E9 whole entry): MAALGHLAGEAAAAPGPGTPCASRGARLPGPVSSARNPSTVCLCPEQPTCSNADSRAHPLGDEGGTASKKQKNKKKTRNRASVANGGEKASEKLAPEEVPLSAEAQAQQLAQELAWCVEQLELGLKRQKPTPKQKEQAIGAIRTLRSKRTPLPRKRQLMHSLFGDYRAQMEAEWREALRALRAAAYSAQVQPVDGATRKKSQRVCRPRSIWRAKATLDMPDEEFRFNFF
row,effect of a mutation on the interaction,Variant
1,with no effect,L12H

# Variants of: B2
# Conditions: with KRT15, P19012
# KRT15, P19012, sequence (P19012 whole entry): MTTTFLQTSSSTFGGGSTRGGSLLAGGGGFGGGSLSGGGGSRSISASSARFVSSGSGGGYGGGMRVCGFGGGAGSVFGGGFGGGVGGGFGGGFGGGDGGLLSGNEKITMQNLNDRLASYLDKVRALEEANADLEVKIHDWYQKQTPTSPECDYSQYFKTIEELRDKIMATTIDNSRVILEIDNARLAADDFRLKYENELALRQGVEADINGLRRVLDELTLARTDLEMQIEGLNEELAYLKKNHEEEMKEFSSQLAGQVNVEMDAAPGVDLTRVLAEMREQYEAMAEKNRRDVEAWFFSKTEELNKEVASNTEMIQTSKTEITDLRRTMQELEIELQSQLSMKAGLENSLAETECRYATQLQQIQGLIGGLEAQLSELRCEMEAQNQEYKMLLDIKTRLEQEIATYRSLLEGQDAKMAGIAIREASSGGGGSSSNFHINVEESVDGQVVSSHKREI
row,effect of a mutation on the interaction,Variant
1,with no effect,L12H

# Variants of: B2
# Conditions: with atf4_human ATF4, P18848
# atf4_human ATF4, P18848, sequence (P18848 whole entry): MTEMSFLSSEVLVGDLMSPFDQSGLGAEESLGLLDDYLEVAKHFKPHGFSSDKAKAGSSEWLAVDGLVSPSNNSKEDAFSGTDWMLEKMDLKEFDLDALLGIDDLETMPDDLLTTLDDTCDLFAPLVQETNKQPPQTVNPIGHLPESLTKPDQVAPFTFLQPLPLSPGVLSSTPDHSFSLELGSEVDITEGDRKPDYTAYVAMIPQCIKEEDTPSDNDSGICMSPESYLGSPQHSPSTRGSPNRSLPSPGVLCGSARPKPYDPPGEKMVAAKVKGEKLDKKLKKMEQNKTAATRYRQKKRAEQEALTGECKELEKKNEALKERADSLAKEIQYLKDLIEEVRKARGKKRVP
row,effect of a mutation on the interaction,Variant
1,with no effect,L12H

# Variants of: B2
# Conditions: with bard1_human BARD1, Q99728
row,effect of a mutation on the interaction,Variant
1,disrupting interaction strength,L12H

# Variants of: B2
# Conditions: with prp31_human PRPF31, Q8WWY3
row,effect of a mutation on the interaction,Variant
1,disrupting interaction strength,L12H

# Variants of: B2
# Conditions: with prc1_human PRC1, O43663
# prc1_human PRC1, O43663, sequence (O43663 whole entry): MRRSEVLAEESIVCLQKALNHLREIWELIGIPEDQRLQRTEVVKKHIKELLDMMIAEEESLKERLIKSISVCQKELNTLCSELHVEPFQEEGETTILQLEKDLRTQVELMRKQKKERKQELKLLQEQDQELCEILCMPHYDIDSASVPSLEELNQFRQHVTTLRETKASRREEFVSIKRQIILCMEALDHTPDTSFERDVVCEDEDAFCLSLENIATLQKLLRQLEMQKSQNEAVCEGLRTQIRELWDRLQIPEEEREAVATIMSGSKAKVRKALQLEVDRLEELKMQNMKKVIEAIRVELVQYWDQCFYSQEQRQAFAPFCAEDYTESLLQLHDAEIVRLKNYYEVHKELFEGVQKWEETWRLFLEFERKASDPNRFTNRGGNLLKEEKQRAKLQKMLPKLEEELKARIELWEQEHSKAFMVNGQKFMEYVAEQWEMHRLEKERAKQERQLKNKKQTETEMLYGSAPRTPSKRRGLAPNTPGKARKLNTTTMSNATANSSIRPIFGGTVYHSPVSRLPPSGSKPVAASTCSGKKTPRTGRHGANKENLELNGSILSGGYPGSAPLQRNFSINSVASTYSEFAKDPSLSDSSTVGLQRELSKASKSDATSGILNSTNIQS
row,effect of a mutation on the interaction,Variant
1,disrupting interaction strength,L12H

# Variants of: B2
# Conditions: with zbt24_human ZBTB24, O43167
# zbt24_human ZBTB24, O43167, sequence (O43167 whole entry): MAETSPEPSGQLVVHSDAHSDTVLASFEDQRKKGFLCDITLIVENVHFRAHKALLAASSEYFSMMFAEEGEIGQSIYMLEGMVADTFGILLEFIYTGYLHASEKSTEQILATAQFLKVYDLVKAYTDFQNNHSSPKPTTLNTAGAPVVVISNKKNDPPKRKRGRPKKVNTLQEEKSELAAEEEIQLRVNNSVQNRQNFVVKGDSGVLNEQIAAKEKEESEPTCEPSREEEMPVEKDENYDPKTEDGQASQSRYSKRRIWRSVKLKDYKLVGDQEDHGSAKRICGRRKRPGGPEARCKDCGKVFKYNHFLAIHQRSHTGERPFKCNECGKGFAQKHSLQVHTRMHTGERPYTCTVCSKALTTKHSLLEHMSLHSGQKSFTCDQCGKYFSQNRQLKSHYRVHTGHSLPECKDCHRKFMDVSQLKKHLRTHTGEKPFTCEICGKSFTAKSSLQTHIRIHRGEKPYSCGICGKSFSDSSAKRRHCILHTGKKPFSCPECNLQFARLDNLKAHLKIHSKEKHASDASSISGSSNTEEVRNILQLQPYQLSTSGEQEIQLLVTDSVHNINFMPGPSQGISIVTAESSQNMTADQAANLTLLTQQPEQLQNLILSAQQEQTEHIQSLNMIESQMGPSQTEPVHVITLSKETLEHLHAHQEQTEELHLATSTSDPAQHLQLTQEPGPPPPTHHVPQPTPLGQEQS
row,effect of a mutation on the interaction,Variant
1,disrupting interaction strength,L12H

# Variants of: B2
# Conditions: with vatg1_human ATP6V1G1, O75348
# vatg1_human ATP6V1G1, O75348, sequence (O75348 whole entry): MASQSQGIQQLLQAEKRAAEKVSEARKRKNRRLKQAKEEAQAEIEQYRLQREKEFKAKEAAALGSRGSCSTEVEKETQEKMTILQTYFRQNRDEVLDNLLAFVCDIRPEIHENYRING
row,effect of a mutation on the interaction,Variant
1,disrupting interaction strength,L12H

# Variants of: B2
# Conditions: with exoc7_human EXOC7, Q9UPT5
row,effect of a mutation on the interaction,Variant
1,disrupting interaction strength,L12H

# Variants of: B2
# Conditions: with tha10_human THAP10, Q9P2Z0
row,effect of a mutation on the interaction,Variant
1,disrupting interaction strength,L12H

# Variants of: B2
# Conditions: with zn250_human ZNF250, P15622
row,effect of a mutation on the interaction,Variant
1,disrupting interaction strength,L12H

# Variants of: B2
# Conditions: with smrd1_human SMARCD1, Q96GM5
row,effect of a mutation on the interaction,Variant
1,disrupting interaction strength,L12H

# Variants of: B2
# Conditions: with mmta2_human MMTAG2, Q9BU76
# mmta2_human MMTAG2, Q9BU76, sequence (Q9BU76 whole entry): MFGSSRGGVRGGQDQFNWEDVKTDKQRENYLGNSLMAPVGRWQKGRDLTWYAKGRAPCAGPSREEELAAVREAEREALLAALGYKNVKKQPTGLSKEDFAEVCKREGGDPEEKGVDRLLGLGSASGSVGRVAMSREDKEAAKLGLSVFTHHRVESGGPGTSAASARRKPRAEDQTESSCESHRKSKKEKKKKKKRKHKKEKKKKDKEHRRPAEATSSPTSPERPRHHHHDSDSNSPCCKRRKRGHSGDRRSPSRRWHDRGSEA
row,effect of a mutation on the interaction,Variant
1,disrupting interaction strength,L12H

# Variants of: B2
# Conditions: with tnnt1_human TNNT1, P13805
# tnnt1_human TNNT1, P13805, sequence (P13805 whole entry): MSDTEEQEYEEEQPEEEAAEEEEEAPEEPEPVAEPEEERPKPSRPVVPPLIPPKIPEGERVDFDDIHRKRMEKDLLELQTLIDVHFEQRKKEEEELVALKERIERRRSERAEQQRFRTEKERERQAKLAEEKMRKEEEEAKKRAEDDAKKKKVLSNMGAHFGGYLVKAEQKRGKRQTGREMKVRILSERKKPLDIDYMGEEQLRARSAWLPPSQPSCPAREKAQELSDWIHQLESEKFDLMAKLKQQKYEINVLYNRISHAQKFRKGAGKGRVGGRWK
row,effect of a mutation on the interaction,Variant
1,disrupting interaction strength,L12H

# Variants of: B2
# Conditions: with aebp2_human AEBP2, Q6ZN18
row,effect of a mutation on the interaction,Variant
1,with no effect,L12H

# Variants of: B3
# Conditions: with emil1_human EMILIN1, Q9Y6C2
# emil1_human EMILIN1, Q9Y6C2, sequence (Q9Y6C2 whole entry): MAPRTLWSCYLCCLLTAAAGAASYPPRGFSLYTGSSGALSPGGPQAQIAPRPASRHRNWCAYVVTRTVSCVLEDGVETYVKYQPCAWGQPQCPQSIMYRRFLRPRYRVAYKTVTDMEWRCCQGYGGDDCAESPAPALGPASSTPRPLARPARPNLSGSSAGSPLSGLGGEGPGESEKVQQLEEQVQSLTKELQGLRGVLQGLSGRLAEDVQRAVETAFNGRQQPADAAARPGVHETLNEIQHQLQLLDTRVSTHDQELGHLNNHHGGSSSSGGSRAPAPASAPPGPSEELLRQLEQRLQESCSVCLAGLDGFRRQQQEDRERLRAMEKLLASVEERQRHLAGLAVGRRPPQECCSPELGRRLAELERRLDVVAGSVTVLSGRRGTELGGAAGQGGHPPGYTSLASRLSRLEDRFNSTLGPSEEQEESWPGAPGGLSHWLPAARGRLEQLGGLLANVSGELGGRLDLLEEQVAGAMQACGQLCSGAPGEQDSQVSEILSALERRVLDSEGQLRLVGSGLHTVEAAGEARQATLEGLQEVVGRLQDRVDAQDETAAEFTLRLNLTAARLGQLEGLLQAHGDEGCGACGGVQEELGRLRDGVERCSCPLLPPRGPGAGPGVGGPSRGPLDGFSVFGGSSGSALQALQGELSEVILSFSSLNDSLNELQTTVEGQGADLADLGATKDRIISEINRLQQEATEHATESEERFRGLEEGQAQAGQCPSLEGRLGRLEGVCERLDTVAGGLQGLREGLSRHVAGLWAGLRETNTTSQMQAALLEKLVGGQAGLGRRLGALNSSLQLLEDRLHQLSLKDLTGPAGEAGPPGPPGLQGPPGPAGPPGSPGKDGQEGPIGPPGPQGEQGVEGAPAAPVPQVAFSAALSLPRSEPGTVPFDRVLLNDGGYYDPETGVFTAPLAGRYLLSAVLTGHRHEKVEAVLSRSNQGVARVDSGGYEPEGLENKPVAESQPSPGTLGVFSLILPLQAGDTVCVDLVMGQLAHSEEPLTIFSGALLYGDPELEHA
row,effect of a mutation on the interaction,Variant
1,with no effect,F127I

# Variants of: B3
# Conditions: with lnx1_human LNX1, Q8TBB1
# lnx1_human LNX1, Q8TBB1, sequence (Q8TBB1 whole entry): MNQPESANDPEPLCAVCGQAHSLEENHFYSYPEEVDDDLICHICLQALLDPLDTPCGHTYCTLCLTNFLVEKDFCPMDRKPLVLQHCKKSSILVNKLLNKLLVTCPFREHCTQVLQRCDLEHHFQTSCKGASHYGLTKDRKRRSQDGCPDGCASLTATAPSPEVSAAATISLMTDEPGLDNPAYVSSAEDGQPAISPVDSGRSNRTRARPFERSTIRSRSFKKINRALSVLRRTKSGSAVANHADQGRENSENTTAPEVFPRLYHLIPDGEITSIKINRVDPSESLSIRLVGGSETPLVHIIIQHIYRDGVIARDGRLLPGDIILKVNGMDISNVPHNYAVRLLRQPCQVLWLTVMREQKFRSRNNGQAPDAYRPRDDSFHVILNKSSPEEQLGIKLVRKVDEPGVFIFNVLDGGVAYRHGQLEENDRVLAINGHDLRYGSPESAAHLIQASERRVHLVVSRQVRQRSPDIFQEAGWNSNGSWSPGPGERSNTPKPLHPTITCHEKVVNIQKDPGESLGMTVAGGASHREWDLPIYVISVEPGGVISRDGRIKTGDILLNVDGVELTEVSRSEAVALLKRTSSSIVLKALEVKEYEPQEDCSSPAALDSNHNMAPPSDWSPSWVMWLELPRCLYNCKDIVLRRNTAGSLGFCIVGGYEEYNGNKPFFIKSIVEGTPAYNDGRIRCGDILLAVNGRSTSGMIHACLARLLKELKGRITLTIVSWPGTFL
row,effect of a mutation on the interaction,Variant
1,with no effect,F127I

# Variants of: B3
# Conditions: with lnx1_human LNX1, Q8TBB1
# Remark: another data set of the same source
row,effect of a mutation on the interaction,Variant
1,disrupting interaction strength,S126C

# Variants of: B3
# Conditions: with emil1_human EMILIN1, Q9Y6C2
# Remark: another data set of the same source
row,effect of a mutation on the interaction,Variant
1,with no effect,S126C

# Variants of: B4
# Conditions: with kctd9_human KCTD9, Q7L273
row,Variant,effect of a mutation on the interaction
1,I646T,disrupting interaction strength
2,R483Q,disrupting interaction strength

# The remaining lines, values ahead:
row,effect of a mutation on the interaction,Variant
1,with no effect,S703F
2,disrupting interaction strength,L715S
